Key:
[1] = system: TSPYL5-NLD (Homo sapiens); assay: EMSA; details: 10 mM Hepes pH 7.5, 200 mM NaCl, 1 mM TCEP, 5% glycerol, 0.5 mM EDTA; 30 min on ice then 20 min at 25 °C; 6% native Tris-glycine PAGE, GelGreen stain
[2] = biological target: recombinant His-tagged histone H3/H4 (human) (UniProt P68431); assay: SEC-MALS; Enrich SEC 70 column in high salt HBS buffer (20 mM Hepes pH 7.5, 2 M NaCl, 1 mM TCEP, 5% glycerol); TSPYL5-NLD alone, H3/H4 alone (H3/H4 dimers to tetramer) and the coexpressed, co-purified complex

Substance	Kd [1]	also measured
146 bp DNA	380 nM	–
recombinant His-tagged histone H3/H4 (from UniProt P68431 1-136; P62805 1-103) (complex)	–	stoichiometry N [2]: 4
His-SUMO-tagged TSPYL5-NLD (from UniProt Q86VY4 198-388) (domain or fragment)	–	stoichiometry N (TSPYL5 : 2 H3 : 2 H4) [2]: 2
80 bp DNA	500 nM	–
